Measured values reported in article PMC5110521, “EstDZ3: A New Esterolytic Enzyme Exhibiting Remarkable Thermostability” (Frontiers in Microbiology, 2016).

What was measured:
Assay in all cases: purified protein
Type in all cases: biochemical, Dictyoglomus thermophilum
Conditions in all cases: 25 mM Tris-HCl pH 8, 0.05% Triton X-100, 75°C (standard reaction), substrate 0.1 to 1 mM
[1] = substrate: CCCCCCCC(=O)Oc1ccc([N+](=O)[O-])cc1
[2] = substrate: CCCC(=O)Oc1ccc([N+](=O)[O-])cc1
[3] = substrate: CCCCCCCCCC(=O)Oc1ccc([N+](=O)[O-])cc1
[4] = substrate: CC(=O)Oc1ccc([N+](=O)[O-])cc1
[5] = substrate: CCCCCCCCCCCC(=O)Oc1ccc([N+](=O)[O-])cc1

B1: EstDZ3 (Dictyoglomus thermophilum) (protein)
chain: MTENREPVVLKNQGQKIFGVIHIPEKTPAPFVLFCHGFTGTKIEPHRIFVKTAEALAKEGIGALRIDFRGSGDSEGSFKDMTVEGEVSDAMVAIEYLSQNNLVDKEKIGILGLSMGGAVASITSGRNPLIKSCVLWSAVCHFDIFFNRSPEEVSRIKDYGDFIDLGGNPVGKKFLSEIVNIKPLEEIKKRSIPVLIIHGSGDMVVPIQHAYDYFNGLKDTHKVKLEIIEGADHTFNSIEWEEKVIEKTVNWFKETL
notes: full-length ORF, 256 residues (modelled 1 to 256), no signal peptide; pLATE52 poly-histidine tag kept; E. coli BL21(DE3); heat treatment and Ni-NTA; forward primer encodes MTENREP
[1]
  Km: 190 ± 10 µM
  Vmax: 501 µmol/min/mg
  kcat: 104 s⁻¹
  kcat/Km: 557000 M⁻¹ s⁻¹
[2]
  Km: 150 ± 20 µM
  Vmax: 906 µmol/min/mg
  kcat: 1890 s⁻¹
  kcat/Km: 1.25e+07 M⁻¹ s⁻¹
[3]
  Km: 170 ± 10 µM
  Vmax: 387 µmol/min/mg
  kcat: 80 s⁻¹
  kcat/Km: 471000 M⁻¹ s⁻¹
[4]
  Km: 300 ± 70 µM
  Vmax: 355 µmol/min/mg
  kcat: 740 s⁻¹
  kcat/Km: 2.43e+06 M⁻¹ s⁻¹
[5]
  Km: 610 ± 140 µM
  Vmax: 357 µmol/min/mg
  kcat: 743 s⁻¹
  kcat/Km: 1.27e+06 M⁻¹ s⁻¹
